Results taken from US6858210B1, “Therapeutic and diagnostic domain 1 β2GPI polypeptides and methods of using same” (La Jolla Pharmaceutical Co., priority 1998, dated 2005).

Key:
rabbit anti-human β2GPI = assay: Micropanning of mutant domain 1 phage, rabbit antibody; assay type: binding; parameters: key: 0 (<10 colonies) to 4+ (confluent) semiquantitative colony score; conditions: Table 7B
Procedure: Error prone PCR was carried out as follows. Domain 1 of human β2GPI was amplified by PCR under conditions that enhance the error rate of Taq polymerase. The primers were such that amino acids 1-64 were amplified. A Sfc 1 restriction site was incorporated as part of amino acid 1. At the 3′ end a Sal 1 restriction site was incorporated after amino acid 64. The PCR reaction was done as described by Leung et al. (1989) Technique 1:11, using 0.25 mM MnCl2. The PCR product was digested with Sfc 1 and Sal 1 and cloned into fd-tet-DOG2 that had been digested with Apal 1 and Sal 1. This positions domain 1 at the N-terminus of pill immediately after the pill signal sequence. The ligation reaction was electroporated in E. coli K91. Phage were harvested and titered by standard methods. Resulting phage clones were assayed using a micropanning technique.
Immulon type 2 plates were coated with protein G. Protein G was prepared at 5 μg/mL in 0.1 M NaHCO3 and 100 μL per well was added to the wells of microtitration plates and incubated overnight at 4° C. After discarding excess protein G solution from plates, each well was blocked with 200 μL 2YT for 1 hour at RT with agitation on an oscillating platform. Tris-buffered saline, pH 7.4/0.5% Tween 20 (TBS/Tween), was used with an automatic plate washer to wash the wells 4 times with 200 μL. One hundred μL human β2GPI-dependent antiphospholipid 6626, 6501, 6701, rabbit β2GPI-dependent antiphospholipid, or control normal IgG, diluted to 2.5 μg/mL with 2YT, was added to washed wells. The plate was incubated for 1 hour at room temperature on a rotating platform.
Phage to be tested by micropanning were obtained from the agar plates generated by biopanning. Each clone to be tested was transferred using sterile toothpicks to a separate well of a round-bottom 96-well microtitration plate (Corning, Corning, N.Y.) containing 200 μL 2YT/Tet per well and cultured overnight at 30° C. Following overnight incubation, phage cultures were centrifuged using a microtitration plate holder at 1300×g for 10 minutes at room temperature. Supernatants constituted the source of “neat” phage. The neat phage were diluted 1: 100-1:1000 and 100 μL was added to the plate containing protein G-bound β2GPI-dependent antiphospholipid antibody-6501 and normal IgG prepared as described above. The incubation of dilute phage with aPL antibody or control IgG was carried out for 2 hours at room temperature on a flat rotator. After 9 washes with TBS/Tween in an automated plate washer, the IgG-bound phage was eluted with 20 μL of 0.2 N HCl-glycine/0.1% BSA, pH 2.2. The elution incubation continued for 10 minutes at RT, during which time a new Corning microtitration plate was prepared containing 20 μL of freshly starved E. coli per well and kept chilled. One hundred forty μL of 29 mM Tris was added to the plate containing the phage eluates in order to neutralize the pH, following which 20 μL of phage suspension was transferred from each well to the corresponding well in the plate containing starved E. coli. After a 10 minute incubation at 37° C., 200 μL 2YT was added and incubation carried out an additional 30 minutes at 37° C. Using multichannel pipettors, 8 μL from each well was spotted on a large 2YT/Tet agar plate while retaining the original 8×12 well pattern and orientation from the last microtitration plate. After allowing the spots to dry for 30 minutes, the plate was incubated overnight at 30° C. The following day, colonies were semiquantitatively scored from 0 to 4+, with 0 symbolizing <10 colonies; 1+=10-30; 2+=30 colonies to 70% confluent; 3+=70%-90% confluent; 4+=confluent.
For Table 7A, the rabbit anti-human β2GPI was performed on two separate occasions. Mutations are listed with the original amino acid, the position number, and the identity of the amino acid at that position in the mutant. […] Non-mutated domain 1 have a score of 3+, while domain 5 phage gave a score of −. Silent mutations are not shown. […]

[1] = tested on: human β2GPI-dependent antiphospholipid antibody; assay: Micropanning of mutant domain 1 phage, patient antibodies; assay type: binding; conditions: Table 7B

Molecule | Micropan score (rabbit anti-human β2GPI; 5th column) | Micropan score ([1]; antibody 6226) | Micropan score ([1]; antibody 6501) | Micropan score ([1]; antibody 6632) | Micropan score ([1]; antibody 6644) | Micropan score ([1]; antibody 6701) | Micropan score ([1]; antibody 7008) | Micropan score (rabbit anti-human β2GPI; 1st column) | Micropan score (rabbit anti-human β2GPI; 2nd column) | Micropan score (rabbit anti-human β2GPI; 3rd column) | Micropan score (rabbit anti-human β2GPI; 4th column)
4G8: phage clone, domain 1 mutant P11L (protein) GRTCPKPDDLLFSTVVPLKTFYEPGEEITYSCKPGYVSRGGMRKFICPLTGLWPINTLKCTPRVAETVESCLAKLHTENSFTNVWKDDKTLDRYANYEGCLWNATGVVVCTGDETQCYGTWVPIGLAIPENEGGGSEGGGSEGGGSEGGGTKPPEYGDTPIPGYTYINPLDGTYPPGTEQNPANPNPSLEESQPLNTFMFQNNRFRNRQGALTVYTGTVTQGTDPVKTYYQYTPVSSKAMYDAYWNGKFRDCAFHSGFNEDPFVCEYQGQSSDLPQPPVNAGGGSGGGSGGGSEGGGSEGGGSEGGGSEGGGSGGGSGSGDFDYEKMANANKGAMTENADENALQSDAKGKLDSVATDYGAAIDGFIGDVSGLANGNGATGDFAGSNSQMAQVGDGDNSPLMNNFRQYLPSLPQSVECRPYVFGAGKPYEFSIDCDKINLFRGVFAFLLYVATFMYVFSTFANILRNKES | 4 | 2 | 2 | 2 | 3 | 2 | 3 | – | – | – | –
Dom5: phage displaying wild type (WT) domain 5 (protein, left off: large carriers) CKLPVKKATVVYQGERVKIQEKFKNGMLHGDKVSFFCKNKEKKCSYTEDAQCIDGTIEVPKCFKEHSSLAFWKTDASDVKPC | 0 (0 symbolizing <10 colonies) | 0 (0 symbolizing <10 colonies) | 0 (0 symbolizing <10 colonies) | 0 (0 symbolizing <10 colonies) | 0 (0 symbolizing <10 colonies) | 0 (0 symbolizing <10 colonies) | 0 (0 symbolizing <10 colonies) | 4 | 4 | 4 | 4
3C3: phage clone, domain 1 mutant L52P (protein) GRTCPKPDDLPFSTVVPLKTFYEPGEEITYSCKPGYVSRGGMRKFICPLTGPWPINTLKCTPRV | 4 | 1 | 1 | 0 (0 symbolizing <10 colonies) | 1 | 1 | 1 | – | – | – | –
3A4: phage clone, domain 1 multiple mutant D8A, S13T (protein) GRTCPKPADLPFTTVVPLKTFYEPGEEITYSCKPGYVSRGGMRKFICPLTGLWPINTLKCTPRV | 4 | 3 | 3 | 3 | 4 | 3 | 3 | – | – | – | –
4D1: phage clone, domain 1 multiple mutant N56T, R63G (protein) GRTCPKPDDLPFSTVVPLKTFYEPGEEITYSCKPGYVSRGGMRKFICPLTGLWPITTLKCTPGV | 4 | 4 | 2 | 3 | 4 | 4 | 2 | – | – | – | –
SC10: phage clone, domain 1 mutant N56D (protein) GRTCPKPDDLPFSTVVPLKTFYEPGEEITYSCKPGYVSRGGMRKFICPLTGLWPIDTLKCTPRV | – | 3 | 3 | 3 | 3 | 3 | 4 | 4 | 4 | 4 | 4
3G1: phage clone, domain 1 multiple mutant R2W, S38T (protein) GWTCPKPDDLPFSTVVPLKTFYEPGEEITYSCKPGYVTRGGMRKFICPLTGLWPINTLKCTPRV | 4 | 1 | 1 | 1 | 1 | 1 | 1 | – | – | – | –
3F12: phage clone, domain 1 multiple mutant L10I, P17Q, Y22C (protein) GRTCPKPDDIPFSTVVQLKTFCEPGEEITYSCKPGYVSRGGMRKFICPLTGLWPINTLKCTPRV | 4 | 1 | 1 | 1 | 1 | 1 | 1 | – | – | – | –
4A6: phage clone, domain 1 mutant D8G (protein) GRTCPKPGDLPFSTVVPLKTFYEPGEEITYSCKPGYVSRGGMRKFICPLTGLWPINTLKCTPRV | 4 | 2 | 2 | 2 | 3 | 2 | 2 | – | – | – | –
